Reference: patent US20170152290A1 (CENTRO DE INGENIERIA GEN TICA Y BIOTECHNOLOGIA, published 2017)

T1: activated human alfa-2-macroglobulin (α2M_MeNH2) (human, UniProt P01023 24-1474)
T1 construct: mature
T1 sequence (looked up): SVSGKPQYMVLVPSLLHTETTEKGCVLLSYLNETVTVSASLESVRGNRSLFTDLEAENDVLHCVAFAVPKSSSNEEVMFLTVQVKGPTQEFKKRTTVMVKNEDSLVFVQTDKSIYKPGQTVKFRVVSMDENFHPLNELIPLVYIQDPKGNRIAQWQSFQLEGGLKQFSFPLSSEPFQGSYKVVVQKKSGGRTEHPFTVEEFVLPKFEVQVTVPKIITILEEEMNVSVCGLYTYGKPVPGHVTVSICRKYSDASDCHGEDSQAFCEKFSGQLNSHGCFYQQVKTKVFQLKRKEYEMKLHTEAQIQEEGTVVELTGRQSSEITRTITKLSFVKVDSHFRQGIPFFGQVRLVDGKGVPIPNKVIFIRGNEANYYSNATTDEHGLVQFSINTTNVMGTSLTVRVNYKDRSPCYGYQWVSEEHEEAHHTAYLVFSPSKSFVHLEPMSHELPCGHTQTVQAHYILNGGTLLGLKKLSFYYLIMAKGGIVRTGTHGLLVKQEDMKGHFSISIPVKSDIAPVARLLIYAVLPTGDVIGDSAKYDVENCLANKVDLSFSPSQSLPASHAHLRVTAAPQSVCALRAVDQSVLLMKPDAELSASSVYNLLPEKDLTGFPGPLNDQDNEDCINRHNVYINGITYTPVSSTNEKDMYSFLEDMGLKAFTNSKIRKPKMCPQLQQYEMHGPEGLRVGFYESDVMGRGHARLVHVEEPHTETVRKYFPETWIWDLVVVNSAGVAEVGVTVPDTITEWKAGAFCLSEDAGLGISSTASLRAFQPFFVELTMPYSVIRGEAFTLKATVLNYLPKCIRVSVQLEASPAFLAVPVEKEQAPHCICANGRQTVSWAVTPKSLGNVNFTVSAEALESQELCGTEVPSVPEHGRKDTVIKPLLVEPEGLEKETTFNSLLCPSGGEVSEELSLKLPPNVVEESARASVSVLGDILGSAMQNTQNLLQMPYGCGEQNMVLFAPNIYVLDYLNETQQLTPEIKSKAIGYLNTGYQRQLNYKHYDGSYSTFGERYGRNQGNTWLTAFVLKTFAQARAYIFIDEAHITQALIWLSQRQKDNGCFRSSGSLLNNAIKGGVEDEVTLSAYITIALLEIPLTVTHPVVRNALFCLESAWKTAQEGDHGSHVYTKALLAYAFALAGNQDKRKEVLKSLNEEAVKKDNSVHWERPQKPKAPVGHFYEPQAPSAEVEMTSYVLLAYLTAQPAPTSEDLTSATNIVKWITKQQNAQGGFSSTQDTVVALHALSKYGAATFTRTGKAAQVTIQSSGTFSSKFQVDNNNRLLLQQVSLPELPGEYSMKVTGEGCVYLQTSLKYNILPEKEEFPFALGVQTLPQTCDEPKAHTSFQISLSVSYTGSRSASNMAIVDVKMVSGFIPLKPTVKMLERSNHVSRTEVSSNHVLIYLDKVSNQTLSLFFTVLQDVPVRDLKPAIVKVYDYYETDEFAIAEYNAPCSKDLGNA


Key:
[1] = molecular target: recombinant Human Serum Albumin (rHSA) (human, UniProt P02768 25-609); test: SPR (Biacore X), CM5 chip, sLRP1-CIV immobilised on Fc1 and rHSA on Fc2, analyte at 100 nM
[2] = molecular target: T1, activated human alfa-2-macroglobulin …; test: competition ELISA, α2M* coated, DIIIE1PRSbiot as labelled ligand

Row | Binder | binding result [1] | fold increase of IC50 against wild-type DIIIE1PRS [2] [fold] | fold reduction of affinity against wild-type DIIIE1PRS [2] [fold]
1 | Receptor-Associated Protein (RAP) (ligand, UniProt P30533 35-357, looked up) YSREKNQPKPSPKRESGEEFRMEKLNQLWEKAQRLHLPPVRLAELHADLKIQERDELAWKKLKLDGLDEDGEKEARLIRNLNVILAKYGLDGKKDARQVTSNSLSGTQEDGLDDPRLEKLWHKAKTSGKFSGEELDKLWREFLHHKEKVHEYNVLLETLSRTEEIHENVISPSDLSDIKGSVLHSRHTELKEKLRSINQGLDRLRRVSHQGYSTEAEFEEPRVIDLWDLAQSANLTDKELEAFREELKHFEAKIEKHNHYQKQLEIAHEKLRHAESVGDGERVSRSREKHALLEGRTKELGYTVKKHLQDLSGRISRARHNEL | no binding (tested: 100 nM) | – | –
2 | DIIIE1PRS alanine mutant, variant E375 (other, also called Glu375 to Ala) MDKLTLKGMSYVMCTGSFKLEKEVAETQHGTVLVQVKYEGTDAPCKIPFSTQDEKGVTQNGRLITANPIVTDKEKPVNIETEPPFGASYIVVGAGEKALKLSWFKKGSSIGVDHHHHHH | – | ≥ 2 | –
3 | DIIIE1PRS alanine mutant, variant G374 (other, also called Gly374 to Ala) MDKLTLKGMSYVMCTGSFKLEKEVAETQHGTVLVQVKYEGTDAPCKIPFSTQDEKGVTQNGRLITANPIVTDKEKPVNIETEPPFAESYIVVGAGEKALKLSWFKKGSSIGVDHHHHHH | – | ≥ 2 | –
4 | DIIIE1PRS alanine mutant, variant E342 (other, also called Glu342 to Ala) MDKLTLKGMSYVMCTGSFKLEKEVAETQHGTVLVQVKYEGTDAPCKIPFSTQDAKGVTQNGRLITANPIVTDKEKPVNIETEPPFGESYIVVGAGEKALKLSWFKKGSSIGVDHHHHHH | – | ≥ 2 | –
5 | DIIIE1PRS alanine mutant, variant N366 (other, also called Asn366 to Ala) MDKLTLKGMSYVMCTGSFKLEKEVAETQHGTVLVQVKYEGTDAPCKIPFSTQDEKGVTQNGRLITANPIVTDKEKPVAIETEPPFGESYIVVGAGEKALKLSWFKKGSSIGVDHHHHHH | – | ≥ 2 | –
6 | DIIIE1PRS alanine mutant, variant K363 (other, also called Lys363 to Ala) MDKLTLKGMSYVMCTGSFKLEKEVAETQHGTVLVQVKYEGTDAPCKIPFSTQDEKGVTQNGRLITANPIVTDKEAPVNIETEPPFGESYIVVGAGEKALKLSWFKKGSSIGVDHHHHHH | – | ≥ 2 | –
7 | DIIIE1PRS alanine mutant, variant R350 (other, also called Arg350 to Ala) MDKLTLKGMSYVMCTGSFKLEKEVAETQHGTVLVQVKYEGTDAPCKIPFSTQDEKGVTQNGALITANPIVTDKEKPVNIETEPPFGESYIVVGAGEKALKLSWFKKGSSIGVDHHHHHH | – | ≥ 2 | –
8 | DIIIE1PRS alanine mutant, variant K385 (other, also called Lys385 to Ala) MDKLTLKGMSYVMCTGSFKLEKEVAETQHGTVLVQVKYEGTDAPCKIPFSTQDEKGVTQNGRLITANPIVTDKEKPVNIETEPPFGESYIVVGAGEAALKLSWFKKGSSIGVDHHHHHH | – | > 10 | > 22
9 | DIIIE1PRS alanine mutant, variant V365 (other, also called Val365 to Ala) MDKLTLKGMSYVMCTGSFKLEKEVAETQHGTVLVQVKYEGTDAPCKIPFSTQDEKGVTQNGRLITANPIVTDKEKPANIETEPPFGESYIVVGAGEKALKLSWFKKGSSIGVDHHHHHH | – | > 10 | –
10 | DIIIE1PRS alanine mutant, variant T346 (other) MDKLTLKGMSYVMCTGSFKLEKEVAETQHGTVLVQVKYEGTDAPCKIPFSTQDEKGVAQNGRLITANPIVTDKEKPVNIETEPPFGESYIVVGAGEKALKLSWFKKGSSIGVDHHHHHH | – | ≥ 2 | –
11 | DIIIE1PRS alanine mutant, variant E362 (other) MDKLTLKGMSYVMCTGSFKLEKEVAETQHGTVLVQVKYEGTDAPCKIPFSTQDEKGVTQNGRLITANPIVTDKAKPVNIETEPPFGESYIVVGAGEKALKLSWFKKGSSIGVDHHHHHH | – | > 10 | –
12 | DIIIE1PRS alanine mutant, variant K361 (other, also called Lys361 to Ala) MDKLTLKGMSYVMCTGSFKLEKEVAETQHGTVLVQVKYEGTDAPCKIPFSTQDEKGVTQNGRLITANPIVTDAEKPVNIETEPPFGESYIVVGAGEKALKLSWFKKGSSIGVDHHHHHH | – | > 10 | –
13 | DIIIE1PRS alanine mutant, variant P364 (other) MDKLTLKGMSYVMCTGSFKLEKEVAETQHGTVLVQVKYEGTDAPCKIPFSTQDEKGVTQNGRLITANPIVTDKEKAVNIETEPPFGESYIVVGAGEKALKLSWFKKGSSIGVDHHHHHH | – | > 10 | –
14 | DIIIE1PRS alanine mutant, variant P372 (other, also called Pro372 to Ala) MDKLTLKGMSYVMCTGSFKLEKEVAETQHGTVLVQVKYEGTDAPCKIPFSTQDEKGVTQNGRLITANPIVTDKEKPVNIETEPAFGESYIVVGAGEKALKLSWFKKGSSIGVDHHHHHH | – | ≥ 2 | –
